Test results reported in the RNAGym collection of RNA variant scans (doi:10.1073/pnas.2313332121).

B1: TPR t1 (parent)
chain: GACCAAUCUGCCCUCAGAGCUCGAGAACAUCUUCGGAUGCAGAGGAGGCAGGCUUCGGUGGCGCGAUAGCGCCAACGUCCUCAACCUCCAAUGCAUCCCACCACAUGAUGAUGCCUGAAGAGCCUUGGUUUUUUG

Variants of: B1
Test: polymerase ribozyme fitness, log enrichment relative to wild type (log ratio); higher = more active; in vitro selection for triplet polymerase activity
Method in brief: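 Mutant libraries of both subunits of a heterodimeric triplet polymerase ribozyme were PCR-built, transcribed, and selected once in triplicate, with frozen incubation at −7 °C and capture of gel-excised extended constructs on streptavidin beads before RT-PCR. Illumina sequencing of input and output libraries was filtered to genotypes with ≥10 input reads and ≥1 read per output. Fitness is the logarithm of genotype enrichment over wild-type enrichment, using inverse-variance-weighted replicate averages. The logarithm is base 2.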

Row | Variant | polymerase ribozyme fitness (log ratio)
1 | A41U G45U | -1.99
2 | A41U G42A G52A | -3.18
3 | C40U U116A | -3.34
4 | C40A G48C G61A | -0.933
5 | C40A G69C A105G | -6.71
6 | C40U G61U A119U G122U | -0.621
7 | A41C A105C | -5.23
8 | A41C A105G | -3.93
9 | C40U A46U C88U | -2
10 | G39U C62A C86A | -5.05
11 | A41G G45U C56G C124A | -0.22
12 | C40U A83G G128A U129G | -3.53
13 | C40U G69C U78A G110A | -5.28
14 | G39U G51A | -3.64
15 | C40A C72G A108G | -4.46
16 | A41G C99U C124A | -2.72
17 | G39U C86A U106A | -2.01
18 | A41G C99A A119G U125A | -6.99
19 | C40G G63U G120A | -0.497
20 | C40G G63A U92G | -3.61
21 | A41G G61A | -0.141
22 | C40G A41U G45U | -5.41
23 | G39U C80U C101A A111U | -5.03
24 | C40A G44C C72G G127A | -4.18

Row | Variant | polymerase ribozyme fitness (log ratio)
25 | C40G C56A G69C C115G | -6.15
26 | C40U C56G C70U | -2.46
27 | A41G U81A | -1.07
28 | C40G C102U U116G C124U | -4.94
29 | C40G C56A | -1.63
30 | C40G C49A C64U A119U U126A | -3.13
31 | C40A G48C A121C U129G | -0.25
32 | C40A C82A U92A C102A C124U | -4.16
33 | A41U C62G | -3.92
34 | A41U A66G U92A | -2.28
35 | C40U C53U C70U C72U C97U | -1.36
36 | C40A G63A G128U | -4.66
37 | C40A U59A | -1.29
38 | A41U A83C G110A | -4
39 | C40A G42U G77C | -2.77
40 | G39U C53A G63U U126A | -5.66
41 | C40G G117C | -3.98
42 | C40U G52U C62U | -1.16
43 | C40G U59A C72U G110C G117A A119C U129G U133G | -7.24
44 | C40U U78C U132A | -1.65
45 | C40U C94U | -1.54
46 | A41U G93C | -2.07
47 | C40U U109C | -4.01
48 | C40U C115A | -0.771

Row | Variant | polymerase ribozyme fitness (log ratio)
49 | A41G C73U U125C | -2.74
50 | C40U G48U A50C G51A | -3.99
51 | A41U C72G A90C | -2.3
52 | A41U G113U | -3.98
53 | A41U G113C | -3.1
54 | C40U G69A C72U C124A | -1.11
55 | C40A C72A U81A A119U | -3.46
56 | C40U A90G C102G | -4.16
57 | C40A G63U | -3.37
58 | C40A G63A | -2.68
59 | G39U G71U | -1.16
60 | C40G G57A A84C U112A G122A | -3.59
61 | C40A G63U C104A G120A U130G | -5.07
62 | C40G U92A | -3.01
63 | G39U C76A U125G | -2.02
64 | A41C C123A | -0.408
65 | C40G G44A C98U | -5.49
66 | A41U G110A | -2.6
67 | C40A U106A C124A | 1.38
68 | C40G C62U C72A A83G | -3.49
69 | C40U A90U | -1.76
70 | A41C G63C A90C C123G G128C | -3.12
71 | C40U C80G | -5.42
72 | A41U A43G G48A G63A A90G C104U G120U | -4.4

Row | Variant | polymerase ribozyme fitness (log ratio)
73 | C40U U96G C115G A118U G122U | -3.71
74 | A41G G52C G58U C62A U78C A111C G127A | -4.32
75 | C40A C102U | -3.15
76 | C40G A50U G63C | -2.25
77 | C40U A43C C64U G93C C115A | -2.31
78 | A41G A50U | -1.71
79 | C40A G45U A90G | -1.17
80 | G39U C86U | -1.64
81 | A41U G61U | -0.703
82 | C40U G45U G63A | -2.6
83 | G39U G77C | -1.76
84 | C40A G45U G122U | -2.79
85 | A41G U106A | -0.451
86 | C40G C82U U106A | -1.73
87 | C40U C73G C123G U132A | 0.0747
88 | A41U G135U | -2.4
89 | C40A G45A | -2.54
90 | A41U G45C C114A | -4.37
91 | G39U G63U | -1.63
92 | A41C G52U C72G U96A | -4.71
93 | A41C A74G C98U | -1.89
94 | A41U G42C C53A C85U | -4.01
95 | C40G U112A | 1.38
96 | G39U C56A A84C G113U | -4.13

Row | Variant | polymerase ribozyme fitness (log ratio)
97 | A41C C73G C85A A118U | -3.17
98 | C40A C89U | -0.912
99 | A41U C72A | -1.82
100 | A41U C56A | -1.52
101 | C40A A50U A95C | -3.28
102 | G39U C56G C72G U112C C124U | -1.3
103 | A41C C64U U78C U106A | -1.57
104 | C40U A68U G69A C88U G93A U133A | -6.63
105 | G39U G117U A118C | -4.29
106 | G39U C40G U106A U109A G120C | -5.48
107 | C40U A84C U112A | 0.737
108 | A41C G48A G60A C86U U96G | -3.39
109 | C40U C49A C72G A74U C94U G117C | -6.96
110 | A41U A66G G71C U78A | -5.05
111 | A41C U112A | 0.299
112 | A41U C124G | 0.981
113 | A41C U55A C102U | -3.43
114 | G39U U92C C115U A119U | -3.57
115 | C40A C89G U106G C123U | -5.55
116 | C40U C73U | -0.508
117 | C40A C56A C73U A84C | -2.23
118 | C40U A43U A90G G113U | -3.26
119 | C40A U59A G60A | -0.777
120 | C40U G122A U130A | -1.96

Row | Variant | polymerase ribozyme fitness (log ratio)
121 | C40G G58C G60U C101U U126C | -2.69
122 | A41C C72U A74G A91U A95C G113A | -3.31
123 | C40U C80U C86U A91C U112G | -3.87
124 | G39U G122A | -1.25
125 | C40U U59C C85G | -2.73
126 | C40U G48A A50C C72A | 0.216
127 | A41G A95G C114U | -2.64
128 | C40U A41C | -2.44
129 | A41C G44U C115A G122U U130G | -4.66
130 | A41C C56G A74C | -5.29
131 | C40G C49U A84U | -2.42
132 | C40U U130G | -0.974
133 | C40A U55A G69C C73A A84C G120A | -1.3
134 | C40G U59A | -1.68
135 | A41C U131G | -0.589
136 | C40G G110A | -1.53
137 | C40A A90G C123U | 0.623
138 | A41G G45A A50C C123U | -0.694
139 | C40U C56U A91C C97U C115U | -3.89
140 | C40G A46C G48U C73G C124G | -5.04
141 | C40U U92C | -1.86
142 | A41C C114U | -2.16
143 | C40A G45U G110A | -4.4
144 | G39U U87C | -0.0295

Row | Variant | polymerase ribozyme fitness (log ratio)
145 | C40U G61U C97A | -5.61
146 | G39U G52U C70U | -2.08
147 | C40A C72G A119U U130C U131A | -1.75
148 | C40U U92C G110A G117C | -6.39
149 | A41C G48U A111C | -3.12
150 | A41U G44A | -2.2
151 | C40A G47A G60A A75U C86U C97U C123A U132A | -1.57
152 | A41C U78G G122A | -1.85
153 | A41G G44A C123U | 0.224
154 | A41U G63C A95C | -3.24
155 | C40U G77A | -1.17
156 | C40G G113U C114U U133G | -2.25
157 | C40G G110A U132A | -1.48
158 | C40U C72G U106A C123G U126A U131A | -1.25
159 | G39U G52A G63U | -2.37
160 | A41C C53U G122A | -2.04
161 | C40G G57U | -1.36
162 | A41C U126G U130G | -4.83
163 | C40G G77A C97U | -4.09
164 | A41U C76A U81A | -1.77
165 | C40U G45C C49U G63U A83U | -5.92
166 | A41G A118G G120U U130A | -1.43
167 | C40A G61A C73U C88U G113U | -6.64
